Measured values as given in patent US20200016315A1 (SYDDANSK UNIVERSITET, published 2020).

Experiments:
[1] = molecular target: T1, hemoglobin (human, UniProt P69905 2-142; P68871 2-147); experiment: raw plasma without added hemoglobin mixed with equal volume of protein-Sepharose, supernatant on Cobas 6000; not corrected for dilution; no Sepharose 7, sham Sepharose 0
T1 construct: also called Hb; human Hb

[2] = molecular target: T1, hemoglobin; experiment: plasma with 3 g/l added hemoglobin mixed with equal volume of protein-Sepharose, supernatant on Cobas 6000; not corrected for dilution; no Sepharose 80, sham Sepharose 25

Row | Binder | H-index of supernatant (hemoglobin left after removal) [1] [mg/dL] | H-index of supernatant (hemoglobin left after removal) [2] [mg/dL]
1 | IsdH^N1 (residues 86-229) with N-terminal His6 tag and thrombin cleavage site (receptor, coupled through primary amines to CNBr-activated Sepharose, also called N1 Seph; not shown: added N-terminal His6 tag and thrombin cleavage site) DIGPREQVNFQLLDKNNETQYYHFFSIKDPADVYYTKKKAEVELDINTASTWKKFEVYENNQKLPVRLVSYSPVPEDHAYIRFPVSDGTQELKIVSSTQIDDGEETNYDYTKLVFAKPIYNDPSL | 0 | 29
2 | IsdH N1N2N3 (residues 82-655), wild type (receptor, coupled through primary amines to CNBr-activated Sepharose, In the assay the protein was immobilized on Sepharose; also called IsdH N1N2N3 wt; N1N2N3-Seph; not shown: vector-encoded His6 tag of pET-15b) NYPAADESLKDAIKDPALENKEHDIGPREQVNFQLLDKNNETQYYHFFSIKDPADVYYTKKKAEVELDINTASTWKKFEVYENNQKLPVRLVSYSPVPEDHAYIRFPVSDGTQELKIVSSTQIDDGEETNYDYTKLVFAKPIYNDPSLVKSDTNDAVVTNDQSSSVASNQTNTNTSNQNISTINNANNQPQATTNMSQPAQPKSSTNADQASSQPAHETNSNGNTNDKTNESSNQSDVNQQYPPADESLQDAIKNPAIIDKEHTADNWRPIDFQMKNDKGERQFYHYASTVEPATVIFTKTGPIIELGLKTASTWKKFEVYEGDKKLPVELVSYDSDKDYAYIRFPVSNGTREVKIVSSIEYGENIHEDYDYTLMVFAQPITNNPDDYVDEETYNLQKLLAPYHKAKTLERQVYELEKLQEKLPEKYKAEYKKKLDQTRVELADQVKSAVTEFENVTPTNDQLTDLQEAHFVVFESEENSESVMDGFVEHPFYTATLNGQKYVVMKTKDDSYWKDLIVEGKRVTTVSKDPKNNSRTLIFPYIPDKAVYNAIVKVVVANIGYEGQYHVRIINQDI | 0 | 12
3 | IsdH N1N2N3 Y642A (receptor, coupled through primary amines to CNBr-activated Sepharose, also called N1N2N3-Y642A-Seph; Y642A mutant; not shown: vector-encoded His6 tag of pET-15b) NYPAADESLKDAIKDPALENKEHDIGPREQVNFQLLDKNNETQYYHFFSIKDPADVYYTKKKAEVELDINTASTWKKFEVYENNQKLPVRLVSYSPVPEDHAYIRFPVSDGTQELKIVSSTQIDDGEETNYDYTKLVFAKPIYNDPSLVKSDTNDAVVTNDQSSSVASNQTNTNTSNQNISTINNANNQPQATTNMSQPAQPKSSTNADQASSQPAHETNSNGNTNDKTNESSNQSDVNQQYPPADESLQDAIKNPAIIDKEHTADNWRPIDFQMKNDKGERQFYHYASTVEPATVIFTKTGPIIELGLKTASTWKKFEVYEGDKKLPVELVSYDSDKDYAYIRFPVSNGTREVKIVSSIEYGENIHEDYDYTLMVFAQPITNNPDDYVDEETYNLQKLLAPYHKAKTLERQVYELEKLQEKLPEKYKAEYKKKLDQTRVELADQVKSAVTEFENVTPTNDQLTDLQEAHFVVFESEENSESVMDGFVEHPFYTATLNGQKYVVMKTKDDSYWKDLIVEGKRVTTVSKDPKNNSRTLIFPYIPDKAVYNAIVKVVVANIGAEGQYHVRIINQDI | 0 | 8
